Data from paper PMC5596431 (Cell Death and Differentiation, 2017).

Target: BiP (binding immunoglobulin protein), ER-resident chaperone (human (endogenous in H1299), UniProt P11021 19-654)
Experiment: proximity ligation

BiP (binding immunoglobulin protein), ER-resident chaperone, sequence (P11021 19-654): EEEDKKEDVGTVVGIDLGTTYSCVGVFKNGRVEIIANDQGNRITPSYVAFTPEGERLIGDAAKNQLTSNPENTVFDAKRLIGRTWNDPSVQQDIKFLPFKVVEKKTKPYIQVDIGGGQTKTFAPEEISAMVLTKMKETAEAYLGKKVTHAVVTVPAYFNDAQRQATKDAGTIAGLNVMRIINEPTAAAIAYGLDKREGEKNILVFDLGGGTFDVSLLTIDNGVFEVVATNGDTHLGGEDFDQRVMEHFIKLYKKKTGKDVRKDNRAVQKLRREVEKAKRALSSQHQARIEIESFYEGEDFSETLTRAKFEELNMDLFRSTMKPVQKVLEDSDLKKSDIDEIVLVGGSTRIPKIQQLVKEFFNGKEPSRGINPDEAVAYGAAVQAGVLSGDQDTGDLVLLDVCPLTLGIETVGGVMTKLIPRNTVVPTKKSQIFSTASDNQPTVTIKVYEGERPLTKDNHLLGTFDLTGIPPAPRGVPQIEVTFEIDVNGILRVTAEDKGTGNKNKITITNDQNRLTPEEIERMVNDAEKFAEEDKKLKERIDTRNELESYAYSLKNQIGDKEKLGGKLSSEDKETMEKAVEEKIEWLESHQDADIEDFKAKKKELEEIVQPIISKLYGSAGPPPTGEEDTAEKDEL

B1: BIK, BH3-only pro-apoptotic member of the BCL-2 family (natural protein, human (endogenous in H1299), UniProt Q13323 1-160, looked up)
chain: MSEVRPLSRDILMETLLYEQLLEPPTMEVLGMTDSEEDLDPMEDFDSLECMEGSDALALRLACIGDEMDVSLRAPRLAQLSEVAMHSLGLAFIYDQTEDIRDVLRSFMDGFTTLKENIMRFWRSPNPGSWVSCEQVLLALLLLLALLLPLLSGGLHLLLK
**Q.** Which results are given for B1?
**A.** ratio of PLA BIK/BiP complexes in p53-positive/p53-negative cells, DMSO: 1.3 ratio; ratio of PLA BIK/BiP complexes in p53-positive/p53-negative cells, thapsigargin: 0.4 ratio
